In patent US20230001007A1, “Glycan-Interacting Compounds and Methods of Use” (Seagen Inc., priority 2017, published 2023):

Legend:
[1] = test system: cynomolgus monkey tissues; experiment: Tissue cross-reactivity study, frozen tissue sections; assay type: binding; design: key: 1+=weak staining; 2+=moderate staining; 3+=strong staining; 4+=intense staining; Neg=negative; freq=frequent (staining in >75%-100% of cells); occ=occasional (staining in >25%-50% of cells); rare refers to staining in 1-5% of cells; conditions: Cyno, 1-3 μg/ml
Description: Tissue cross-reactivity studies were conducted to assess the binding profile (both on- and potential off-target binding) to human and relevant species used in nonclinical safety testing. Humanized anti-STn antibodies were examined for binding to a panel of normal human, rat, mouse, and cynomolgus monkey tissues. The study was conducted on […] normal frozen tissue sections at 1-3 μg/ml: heart, brain, kidney, stomach, lung, small intestines, colon, liver, pancreas, spleen and bone marrow. The positive control was a human pancreatic neoplasm that contained STn positive cancer cells and the negative control was normal stromal cells contained within the same specimen. Staining across all normal tissues was restricted to the cytoplasm. Additional analyses were conducted without primary antibody or using isotype control IgG as negative controls.
Antibodies were also found to cross react with similar types of tissue from Cynomolgus monkey (see Table 17) and rat (not shown).

[2] = molecular target: bovine submaxillary mucin (BSM); experiment: BSM ELISA, periodate-sensitive STn binding; conditions: periodate-sensitive STn binding curve, 0 to 100 nM
Description: For BSM ELISA analysis, antibodies were screened over a concentration range of 0 to 100 nM on bovine submaxillary mucin (BSM) coated wells. A subset of wells were treated with mild periodate solution before antibody introduction to remove the side chain on terminal sialic acid residues (destroying the STn antigen). Optical densities of periodate and non-periodate-treated wells were determined and log transformed then fit to a nonlinear regression model to obtain a dose response curve. Optical density values obtained from periodate-treated wells were subtracted from non-periodate treated wells to obtain a periodate-sensitive STn binding curve and corresponding EC50 values.

[3] = test system: MDA-MB-231 cells transfected for enhanced expression of STn (STn positive cells); experiment: ADC cytotoxicity assay ([…]-GLO); assay type: cell-based; conditions: MMAE-conjugated ADC versions; 72 hours; kill of STn positive cells
Description: MMAE-conjugated ADC versions of hSIA101, hSIA102, and hSIA103 were assessed in an ADC cytotoxicity assay using MDA-MB-231 cells (parental or transfected for enhanced expression of STn). Parental cells were grown in Eagle's Minimum Essential Medium (EMEM) supplemented with 10% FBS, lx Pen/Strep and 45 μg/mL gentamycin. STn positive cells were grown in the same media except with the addition of 1 mg/mL G418 for antibiotic selection. Cells were seeded separately (4,000 cells/well for parental cells or 2,000/well for STn positive cells) in 96-well plates using proper media described above. Cells were grown overnight. After 16-20 hours, cells were treated with varying concentrations of test antibodies in triplicate (50 nM to 0.012 nM) for 72 hours. Then, cells were analyzed using an ADC […]-GLO® luminescent cell viability assay kit (Promega, Madison, Wis.) to determine the amount of ATP present, an indicator of metabolically active cells. The assay uses a single reagent that is added directly to the cultured cells in serum-supplemented medium. The reagent lyses the cells and generates a luminescent signal proportional to the amount of ATP present. Luminescent signals were analyzed and used to calculate the half-maximal inhibitory concentration (IC50) values for each antibody used based on the concentration required to kill STn positive cells at half-maximal levels (see Table 9).

[4] = test system: Primary patient CRC samples; experiment: STn expression in primary patient CRC samples by flow cytometry; assay type: cell-based; conditions: % of viable CD45−/CD34− population
Description: Primary patient CRC samples were probed by flow cytometry with hSIA101 and two commercial antibodies B72.3 and CC49. All 10 samples tested were STn positive. In the table, % STn is expressed as % of viable CD45−/CD34− population. STn expression was often more robustly identified with hSIA101 than the commercial antibodies.

B1: hSIA101 (antibody, V domains shown)
VH: EVQLVQSGAEVKKPGASVKVSCKASGYTFTDHAIHWVRQAPGQGLEWMGYFSPGNDDIKYNEKFRGRVTMTADKSSSTAYMELRSLRSDDTAVYFCKRSLSTPYWGQGTLVTVSS
VL: DIVMTQSPDSLAVSLGERATINCKSSQSLLNRGNHKNYLTWYQQKPGQPPKLLIYWASTRESGVPDRFSGSGSGTDFTLTISSLQAEDVAVYYCQNDYTYPYTFGQGTKVEIK
In the case of B1, the tissue staining ([1]; Colon Epithelial Cells) is reported as “Neg”, the tissue staining ([1]; Colon Vessel) is reported as 4+ freq (cytoplasm) and the tissue staining ([1]; Heart Vessel) is reported as “Neg”. For the same molecule, the tissue staining ([1]; Lung Epithelium) was 2-3+ freq (cytoplasm), the tissue staining ([1]; Pancreas Vessel) was 2-3+ freq (cytoplasm) and the tissue staining ([1]; Small Intestine Epithelial Cells) was 3-4+ freq (cytoplasm). The tissue staining ([1]; Spleen Vessel) was “Neg”, the tissue staining ([1]; Stomach Epithelial Cells) was 2-3+ occ (cytoplasm) and the tissue staining ([1]; Stomach Vessel) was 2+ occ (cytoplasm). For the same molecule, the EC50 [2] was 4.2 nM, the IC50 [3] was 5.2 nM and the “% STn+” value ([4]; Sample 160093-2, Colon) was 22.9%. For the same molecule, the “% STn+” value ([4]; Sample 160101-2, Colon) was 10%, the “% STn+” value ([4]; Sample 160102-2, Colon) was 12.9% and the “% STn+” value ([4]; Sample 160104-2, Colon Met to Liver) was 47.8%. The “% STn+” value ([4]; Sample 160115-2, Colon) was 5.4%, the “% STn+” value ([4]; Sample 160127-2, Colon) was 4.2% and the “% STn+” value ([4]; Sample 160149-1, Colon) was 22.7%. The “% STn+” value ([4]; Sample 160151-1, Colon) was 19.6%, the “% STn+” value ([4]; Sample 169068-1, Colon) was 10.9% and the “% STn+” value ([4]; Sample 1601666, Colon) was 29.4%.
